The record followed here is article PMC7431413.

The target of this assay is recombinant tyrosine phosphorylated STAT3 dimer (pY705 STAT3-CF) (human) (UniProt P40763). Kind of assay: SEC; purified STAT3-CF co-expressed with the ABL1 kinase domain; immunoblot for pY705. (In general: Size exclusion chromatography separates by hydrodynamic size, large species first.)

The stoichiometry N is a count of units in the complex or per binding partner. “recombinant tyrosine phosphorylated STAT3 dimer (pY705 STAT3-CF) (from UniProt P40763 127-722) (domain or fragment)”: the stoichiometry N was 2.
